Publication PMC6400556 (The Journal of Cell Biology, 2019)

T1: GST-FAPP1 full length (four-phosphate-adaptor-protein-1) (human, UniProt Q9HB20 1-300)
T1 sequence (looked up): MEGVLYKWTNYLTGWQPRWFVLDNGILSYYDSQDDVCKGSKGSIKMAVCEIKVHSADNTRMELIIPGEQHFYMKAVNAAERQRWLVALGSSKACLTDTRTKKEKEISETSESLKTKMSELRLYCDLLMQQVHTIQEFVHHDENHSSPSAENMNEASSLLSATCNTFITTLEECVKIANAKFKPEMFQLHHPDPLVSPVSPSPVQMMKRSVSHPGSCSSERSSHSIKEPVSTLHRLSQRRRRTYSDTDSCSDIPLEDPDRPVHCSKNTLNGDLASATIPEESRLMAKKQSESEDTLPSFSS

B1: His-Sac1 residues 1–188 (domain or fragment, human, UniProt Q9NTJ5 1-188, looked up)
chain: MATAAYEQLKLHITPEKFYVEACDDGADDVLTIDRVSTEVTLAVKKDVPPSAVTRPIFGILGTIHLVAGNYLIVITKKIKVGEFFSHVVWKATDFDVLSYKKTMLHLTDIQLQDNKTFLAMLNHVLNVDGFYFSTTYDLTHTLQRLSNTSPEFQEMSLLERADQRFVWNGHLLRELSAQPEVHRFALP

Key:
[1] = target: B1; assay: pull-down
[2] = target: T1, GST-FAPP1 full length …; assay: pull-down

Row | binding result [1] | binding result [2] | Binder
1 | binds | – | GST-FAPP1 residues 1–100 (domain or fragment, human, UniProt Q9HB20 1-100, looked up) MEGVLYKWTNYLTGWQPRWFVLDNGILSYYDSQDDVCKGSKGSIKMAVCEIKVHSADNTRMELIIPGEQHFYMKAVNAAERQRWLVALGSSKACLTDTRT
2 | – | binds | B1
